The values that follow come from article PMC8496864.

In experiment [1] the target is CwlDΔ25-His6 (soluble domain of C. difficile CwlD amidase, His-tagged) (Clostridioides difficile). As to the kind of experiment: SEC; Superdex 200 Increase 10/300 GL; 200 mM NaCl, 10 mM Tris HCl pH 7.5, 5% glycerol, 1 mM DTT; fractions on SDS-PAGE with Coomassie; complexes also run after 1 h at 4°C with fivefold excess ZnCl2 or 1 mM EDTA. A general note: In gel filtration, larger molecules generally elute earlier.

The target of experiment [2] is FLAG-tagged CwlD_(E199A) (Clostridioides difficile). As to the kind of experiment: co-IP; lysates of C. difficile sporulating for 22 h; FLAG IP buffer (50 mM Tris pH 7.5, 150 mM NaCl) with 0.1% NP-40; anti-FLAG magnetic resin, 1 h at room temperature; eluted with FLAG peptide; GerS detected by anti-GerS blot.
In experiment [3] the target is FLAG-tagged CwlD_(R169D) (Clostridioides difficile). The experiment is described as above.
In experiment [4] the target is FLAG-tagged CwlD_(H49A) (Clostridioides difficile). Described as above.
Experiment [5] has as its target CwlDΔ25-His6 (soluble domain of C. difficile CwlD amidase, His-tagged) (Clostridioides difficile). Description: pull-down; co-affinity purification: His-tagged CwlD and untagged GerS co-produced in E. coli, captured on Ni-NTA agarose (500 mM NaCl, Tris pH 7.5, 15 mM imidazole, 10% glycerol, 2 mM ß-mercaptoethanol), eluted with 200 mM imidazole, Coomassie staining.
Experiment [6] addresses CwlD_(R169D)-His6 (Clostridioides difficile). The experiment is described as above.
Experiment [7] addresses CwlD_(R169Q)-His6 (Clostridioides difficile). The description is as above.
Experiment [8] deals with GerSΔ22 (soluble domain of C. difficile GerS lipoprotein, untagged) (Clostridioides difficile). As to the kind of experiment: crystal structure; SEC-purified CwlD:GerS complex; hanging drop at 18°C, 50 mM BisTris pH 7.5, PEG 3350 12–18%, 5% glycerol, 0.25 M ammonium nitrate; 2.4 Å.
Experiment [9] addresses CwlD_(E199A)-His6 (Clostridioides difficile). Description: SEC; Superdex 200 Increase 10/300 GL; 200 mM NaCl, 10 mM Tris HCl pH 7.5, 5% glycerol, 1 mM DTT; fractions on SDS-PAGE with Coomassie; complexes also run after 1 h at 4°C with fivefold excess ZnCl2 or 1 mM EDTA.
The target in experiment [10] is CwlD_(H49A)-His6 (Clostridioides difficile). The description is as above.
Experiment [11] has as its target CwlD_(E65A)-His6 (Clostridioides difficile). The experiment is described as above.
Experiment [12] concerns the target GerSΔ22-His6 (Clostridioides difficile). Description: dynamic light scattering; DynaPro Protein Solutions DLS instrument; purified GerS, CwlD and SEC-purified CwlD:GerS complex.
Experiment [13] has the same target. Description: SEC; Superdex 200 Increase 10/300 GL; 200 mM NaCl, 10 mM Tris HCl pH 7.5, 5% glycerol, 1 mM DTT; fractions on SDS-PAGE with Coomassie; complexes also run after 1 h at 4°C with fivefold excess ZnCl2 or 1 mM EDTA.

Regarding “CwlDΔ25-His6 (soluble domain of C. difficile CwlD amidase, His-tagged) (domain or fragment)”, the stoichiometry N (as a rule, the number of molecules, sites or subunits per partner or assembly) in experiment [1] was found to be 2.

In [2], “GerS, cleaved form (GerS-c), untagged, in sporulating C. difficile (natural protein)” gave a decrease of GerS pulled down relative to wild-type FLAG-tagged CwlD of 40%. Further, the fold reduction of GerS pulled down relative to wild-type FLAG-tagged CwlD in [3] and in experiment [4] was 5 fold in each case.

As for “GerS_(D106A), untagged (domain or fragment)”, in experiment [5], the reduction of GerS co-purification relative to the wild-type complex was found to be 90%.

“GerS_(D106R), untagged (domain or fragment)” came in with a reduction of GerS co-purification relative to the wild-type complex in experiment [5] of 90%.

“GerSΔ22 (soluble domain of C. difficile GerS lipoprotein, untagged) (domain or fragment)”: the reduction of GerS co-purification relative to the wild-type complex in experiment [6] and in experiment [7] was 90% each time. Besides, the stoichiometry N worked out at 2 in [8]; 1 in experiment [9]; 1 in experiment [10]; 1 in [11]; 1 in experiment [1].

Consider GerSΔ22-His6 (domain or fragment), for which the stoichiometry N in experiment [12] and in experiment [13] was 2 each time.
